{"source": "patent US20080233097A1", "about": "“Phosphorylation Site Of Mitogen-Activated Protein Kinases, Modified Proteins And Applications” (UNIVERSIDAD AUTONOMA DE MADRID, priority 2005, published 2008)", "key": {"[1]": {"biological_target": "T1, p38 (Mus musculus, UniProt P47811)", "T1 construct": "with whole p38α in the same conditions as described in section A; made in house; host or cells: E. coli", "test": "effect of heparin on catalytic activity of p38", "type": "biochemical", "from_the_text": "Subsequently, the inventors decided to study the possible interactions between GRK2 and p38. The first experimental approach was the phosphorylation assays of both proteins. […] These experiments were completed with negative controls of GST phosphorylation by GRK2 and by inspecting the binding area between the GST portion and the ORF of p38."}, "[2]": {"test_system": "MKK6CAM", "test": "p38 phosphorylation by MKK6CAM in vitro", "type": "biochemical", "details": "150 nM fusion protein, 40 ng MKK6CAM", "description": "(§1) The reactions were carried out at 30° C. for 30 minutes and the proteins were separated in 8% SDS-PAGE gels. The amount of p38 in each point was visualized by Coomassie Blue staining. Then the radioactivity in each p38 isoform was determined. […] FIG. 11B: In these same assays, the ability of MKK6CAM-activated GST-p38WT, GST-p38T123A and GST-p38T123D to phosphorylate 2 μg of GST-ATF2 is evaluated. The representative autoradiography (^32P) of the total GST-ATF2 control (Coomassie Blue) is attached.\nAs in the previous cases, the reactions were left to take place at 30° C. for 30 minutes and the proteins were resolved in 8% SDS-PAGE gels. With the purpose of assuring the inclusion of identical amounts of protein, they were visualized in the gel by Coomassie Blue staining. Subsequently, the radioactivity incorporated in each p38 isoform was determined."}, "[3]": {"test_system": "GST-MEF2A", "test": "phosphorylation of GST-MEF2A by p38", "type": "biochemical", "description": "FIG. 12A: In vitro phosphorylations are carried out with the fusion proteins indicated in the Figure, in the presence (+) or absence (−) of recombinant MKK6CAM(40 ng) and 2 μg of GST-MEF2A. The assay was left to take place for 30 minutes. The proteins were separated in 8% SDS-PAGE, stained with CBB and the incorporated radioactivity (^32P) was detected. Panels of a representative experiment of the three assays carried out independently are provided. FIG. 12B: The baseline activity of the three p38 fusion proteins in the absence of the MKK6CAM activator was evaluated in the previously described conditions. A representative autoradiography after a long exposure is shown.\n(§2) The ATF2 and MEF2A forms bound to GST were used to test the catalytic activity of GST-p38. In most cases, 2 μg of GST-ATF2 or GST-MEF2A, of own production, were used. The phosphorylation conditions are the same as set forth in the foregoing cases. Nevertheless, in other occasions, relevantly pointed out in the Figures, 0.2 μg of substrate were used and the phosphorylation reaction was allowed to take pace for 15 minutes only."}, "[4]": {"biological_target": "T2, GRK2 (Bos taurus, UniProt P21146)", "T2 construct": "made in house; host or cells: Sf9 cells (baculovirus)", "T2 sequence (P21146 1-689)": "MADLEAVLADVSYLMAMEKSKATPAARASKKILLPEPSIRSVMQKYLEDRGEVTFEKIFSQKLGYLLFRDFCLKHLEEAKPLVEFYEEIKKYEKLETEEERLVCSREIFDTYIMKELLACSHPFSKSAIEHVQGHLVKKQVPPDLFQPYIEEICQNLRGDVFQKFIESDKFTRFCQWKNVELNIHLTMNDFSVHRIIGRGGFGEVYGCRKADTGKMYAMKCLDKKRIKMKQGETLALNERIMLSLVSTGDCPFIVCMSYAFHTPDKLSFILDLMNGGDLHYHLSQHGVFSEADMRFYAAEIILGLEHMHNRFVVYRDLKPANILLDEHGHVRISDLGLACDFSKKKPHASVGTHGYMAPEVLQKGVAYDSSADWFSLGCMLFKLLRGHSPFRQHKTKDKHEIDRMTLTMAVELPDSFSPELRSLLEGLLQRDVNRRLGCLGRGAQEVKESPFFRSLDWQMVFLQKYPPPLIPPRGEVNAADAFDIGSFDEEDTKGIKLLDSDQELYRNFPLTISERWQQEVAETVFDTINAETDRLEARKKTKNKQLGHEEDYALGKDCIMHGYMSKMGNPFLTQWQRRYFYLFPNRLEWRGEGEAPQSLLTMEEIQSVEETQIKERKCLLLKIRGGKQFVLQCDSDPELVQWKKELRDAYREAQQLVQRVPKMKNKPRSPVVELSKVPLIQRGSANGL", "test": "phosphorylation of p38 mutants and truncated proteins by GRK2 in vitro", "type": "biochemical", "details": "GST fusion proteins, 30 minutes at 30° C.", "description": "FIG. 6A: Proteins fused to GST (black rectangle in the protein schemes) were purified from bacteria transformed with the plasmids pGEX2T-p38α, pGEX4T-Mxi2 and pGEX4T-Mxi2Δ17: p38α, Mxi2 and Mxi2Δ17. The […] isoforms used as C-terminal truncated mutants for trying to limit the GRK2 phosphorylation site. […] Heparin (150 nM) was included as a specific GRK2 inhibitor. The reactions were stopped by adding SDS breaking buffer. The samples were resolved in 8% SDS-PAGE. For the purpose of assuring the inclusion of identical amounts of protein, they were first visualized in the gel by Coomassie Brilliant Blue (CBB) staining. Then the gel was dried and the radioactivity incorporated to the proteins (^32P) was detected. FIG. 6B: The truncated GST-280-360p38 protein, corresponding to the last 80 p38α amino acids, was generated by means of the Invitrogen Gateway system. Phosphorylation assays were carried out with Mxi2Δ17 as a p38 N-terminal, 280-360 p38 as C-terminal and with whole p38α in the same conditions as described in section A. The phosphorylation was detected by autoradiography (^32P) and controls of the amount of protein used in the assays were carried out concomitantly by Western blot with the anti-GST antibody. The presence of the GST-280-360p38 protein, which is not phosphorylated, is clearly observed. STD, mobility of standard molecular weight proteins.\nFIG. 9A: p38T123A and p38T123D proteins, fused to GST, were made by directed mutagenesis in the prokaryotic expression plasmids pGEX2T. The ability of the recombinant GST-p38T123A and GST-p38T123D proteins to be GRK2 substrates in comparison to the wild GST-p38WT protein and at the final concentrations indicated in the Figure was assayed. The upper panels represent the obtained phosphorylation (32 P) and the lower panels show, by anti-p38N WB, the amount of recombinant protein used in the assays. […]\nHeparin (150 nM) was included as a specific GRK2 inhibitor. […] Subsequently, the gel was dried and the radioactivity incorporated to the proteins (^32P) was detected. […]"}, "[5]": {"test_system": "GST-ATF2", "test": "phosphorylation of GST-ATF2 by MKK6CAM-activated p38", "type": "biochemical", "details": "with MKK6CAM, 2 μg GST-ATF2", "description": "as §1, §2"}, "[6]": {"biological_target": "GST-p38T123A"}, "[7]": {"biological_target": "T3, GST-280-360p38 (last 80 amino acids of p38α fused to GST, from pDEST15)", "T3 chain": "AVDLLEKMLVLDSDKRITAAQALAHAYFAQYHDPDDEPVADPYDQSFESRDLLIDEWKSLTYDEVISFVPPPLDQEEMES"}, "[8]": {"biological_target": "GST-Mxi2, Q16539"}, "[9]": {"biological_target": "GST-p38T123D"}, "[10]": {"biological_target": "T4, GST-p38 (wild type p38α fused to GST, from pGEX2T-p38α)", "T4 chain": "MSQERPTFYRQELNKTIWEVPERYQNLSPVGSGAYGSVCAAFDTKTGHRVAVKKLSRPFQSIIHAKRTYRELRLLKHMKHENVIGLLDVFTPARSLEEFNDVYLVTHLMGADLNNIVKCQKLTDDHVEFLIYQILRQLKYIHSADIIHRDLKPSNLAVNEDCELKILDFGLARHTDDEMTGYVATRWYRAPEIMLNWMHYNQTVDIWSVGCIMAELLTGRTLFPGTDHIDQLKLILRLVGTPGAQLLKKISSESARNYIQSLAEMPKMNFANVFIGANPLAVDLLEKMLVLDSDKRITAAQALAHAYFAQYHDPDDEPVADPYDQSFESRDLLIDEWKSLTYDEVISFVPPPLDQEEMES"}, "[11]": {"biological_target": "GST-Mxi2Δ17, Q16539"}}, "data": [{"molecule": "heparin", "values": [{"measurement": "effect on catalytic activity of p38", "setting": "[1]", "result": "does not affect the catalytic activity of p38"}]}, {"molecule": "p38T123A: p38α mutant form that cannot be phosphorylated by GRK2 (protein, UniProt P47811 2-360, looked up, variant T123A, GST fusion in some forms, p38α mutant form that cannot be phosphorylated by GRK2) Mitogen-activated protein …: SQERPTFYRQELNKTIWEVPERYQNLSPVGSGAYGSVCAAFDTKTGHRVAVKKLSRPFQSIIHAKRTYRELRLLKHMKHENVIGLLDVFTPARSLEEFNDVYLVTHLMGADLNNIVKCQKLADDHVQFLIYQILRGLKYIHSADIIHRDLKPSNLAVNEDCELKILDFGLARHTDDEMTGYVATRWYRAPEIMLNWMHYNQTVDIWSVGCIMAELLTGRTLFPGTDHIDQLKLILRLVGTPGAELLKKISSESARNYIQSLAQMPKMNFANVFIGANPLAVDLLEKMLVLDSDKRITAAQALAHAYFAQYHDPDDEPVADPYDQSFESRDLLIDEWKSLTYDEVISFVPPPLDQEEMES", "values": [{"measurement": "phosphorylation by MKK6CAM (32P)", "setting": "[2]", "result": "correctly phosphorylated by MKK6CAM"}, {"measurement": "baseline catalytic activity on MEF2A", "setting": "[3]; absence of the activating kinase MKK6, long exposure", "result": "middle ground between p38αWT and p38Tα123D"}, {"measurement": "catalytic activity on MEF2A", "setting": "[3]; with MKK6CAM, 2 μg GST-MEF2A", "result": "conserves the ability to phosphorylate this substrate"}, {"measurement": "ability to be a GRK2 substrate (32P incorporation)", "setting": "[4]", "result": "none of the two mutant is a GRK2 substrate"}, {"measurement": "catalytic activity on GST-ATF2", "setting": "[5]", "result": "phosphorylate it analogously"}]}, {"molecule": "Recombinant GRK2 purified by the Baculovirus system (from infected Sf9 cells) (protein) MADLEAVLADVSYLMAMEKSKATPAARASKKILLPEPSIRSVMQKYLEDRGEVTFEKIFSQKLGYLLFRDFCLKHLEEAKPLVEFYEEIKKYEKLETEEERLVCSREIFDTYIMKELLACSHPFSKSAIEHVQGHLVKKQVPPDLFQPYIEEICQNLRGDVFQKFIESDKFTRFCQWKNVELNIHLTMNDFSVHRIIGRGGFGEVYGCRKADTGKMYAMKCLDKKRIKMKQGETLALNERIMLSLVSTGDCPFIVCMSYAFHTPDKLSFILDLMNGGDLHYHLSQHGVFSEADMRFYAAEIILGLEHMHNRFVVYRDLKPANILLDEHGHVRISDLGLACDFSKKKPHASVGTHGYMAPEVLQKGVAYDSSADWFSLGCMLFKLLRGHSPFRQHKTKDKHEIDRMTLTMAVELPDSFSPELRSLLEGLLQRDVNRRLGCLGRGAQEVKESPFFRSLDWQMVFLQKYPPPLIPPRGEVNAADAFDIGSFDEEDTKGIKLLDSDQELYRNFPLTISERWQQEVAETVFDTINAETDRLEARKKTKNKQLGHEEDYALGKDCIMHGYMSKMGNPFLTQWQRRYFYLFPNRLEWRGEGEAPQSLLTMEEIQSVEETQIKERKCLLLKIRGGKQFVLQCDSDPELVQWKKELRDAYREAQQLVQRVPKMKNKPRSPVVELSKVPLIQRGSANGL", "values": [{"measurement": "phosphorylation by GRK2 (32P incorporation)", "setting": "[6]", "result": "none of the two mutant is a GRK2 substrate"}, {"measurement": "phosphorylation by GRK2 (32P incorporation)", "setting": "[7]", "result": "after purifying the fusion protein and testing it against GRK2, no trace whatsoever of phosphorylation was obtained"}, {"measurement": "phosphorylation by GRK2 (32P incorporation)", "setting": "[8]", "result": "With comparable amounts of p38α, Mxi2 and MxiΔ17, the last two were not phosphorylated by GRK2"}, {"measurement": "phosphorylation by GRK2 (32P incorporation)", "setting": "[9]", "result": "none of the two mutant is a GRK2 substrate"}, {"measurement": "Km of p38 phosphorylation by GRK2", "setting": "[10]", "result": "the value of the Km=80 nM"}, {"measurement": "Michaelis-Menten constant (Km) of GST-p38 phosphorylation by GRK2", "setting": "[10]", "result": "Km=79.56 nM"}, {"measurement": "phosphorylation by GRK2 (32P incorporation)", "setting": "[11]", "result": "With comparable amounts of p38α, Mxi2 and MxiΔ17, the last two were not phosphorylated by GRK2"}]}]}
